Reference: US8133978 (GlaxoSmithKline, dated 2012)

Assays:
[1] = biological target: T1, Human interleukin-18 (recombinant human IL-18) (human, UniProt Q14116 37-193); test: SPR, Biacore T100, Protein A capture, 25 C, mean n = 4
T1 construct: also called hIL-18
T1 sequence: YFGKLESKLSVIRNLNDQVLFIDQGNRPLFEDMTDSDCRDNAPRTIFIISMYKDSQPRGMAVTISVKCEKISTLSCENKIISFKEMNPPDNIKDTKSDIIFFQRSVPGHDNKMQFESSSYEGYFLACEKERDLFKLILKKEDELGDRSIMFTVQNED
Protocol: (§1) The methodology was basically the same as for the method used in Example 4a above; Protein A was immobilised on a CM5 chip at densities of between 2000-6000 RU's by primary amine coupling. Runs were carried out in HBS-EP (Biacore™). The anti-IL-18 antibodies were captured to densities of between 100-500 RUs, human IL-18 was passed over this captured surface at concentrations between 16-0.0625 nM, with 0 nM concentration (i.e., a buffer only injection of captured antibody) used for double referencing. Regeneration after each injection of IL-18 was by mild acidic elution using two injections of 10 mM glycine, pH1.5. […] The binding curves obtained were analysed using the analysis software inherent to the T100 machine using the 1:1 model of binding. Runs were carried out at the temperatures indicated.
(§2) These experiments were carried out as described above. Table 6 details the kinetic parameters obtained. […] H1L2 has a better on-rate (ka) than H1L1.

Rhesus IL-18 [2] = biological target: T2, Rhesus IL-18 (rhesus (rhesus/cynomolgus)); test: SPR, Biacore 3000, antibody captured on Protein A, 25 C
T2 construct: also called Rhesus/Cynomolgus IL-18; rhesus/cynomolgus IL-18
Protocol: (§3) Biacore™ kinetic analysis of the humanised 2C10 antibodies was carried out on a Biacore™ 3000 instrument using Protein A capture of the antibodies in HBS-EP buffer (Biacore™). Briefly, Protein A was immobilised on a CM5 chip by primary amine coupling, using manufacturers recommended protocol, to densities around 2000-4000 resonance units (RU's). Humanised antibody was then passed over the Protein A surface and captured to levels of around 200-500 RU's, after a period of stabilisation, IL-18 (human or Rhesus) was passed over the captured antibody surface at defined concentrations and binding sensorgrams were obtained. […] All curves were double referenced against a buffer injection instead of IL-18 and the data was fitted to the 1:1 binding model using the global fit parameters in BiaEval 4.1. Off-rate ranking experiments were set up using the same Protein A capture method, however, only a single concentration of IL-18 was used (10 nM). Whilst the data was fitted using the same binding model as the kinetic analysis, since only one concentration of analyte was used on the off-rate is reported, this value is useful for ranking rather than giving an exact kinetic measurement and was used as a way of selecting which antibodies would be further investigated.
(§4) Based upon these observations selected antibodies were investigated in greater detail for binding to human and Rhesus IL-18 at 37° C. The data shown in Table 4b for human IL-18 is the mean (and standard deviation) of six separate determinations.

[3] = biological target: T1, Human interleukin-18 (recombinant human …); test: ELISA, antibody on plate, human IL-18 captured, detected by 16D10; 37 C, in serum
Protocol: (§5) ELISA was carried out with the three Humanised H1 variants; H1L1, H1L2 and H1L3 to assess binding to human IL-18 at room temperature and at 37° C. in both human serum and in block solution (PBS 0.05% TWEEN with 1% BSA (w/v)). The Humanised antibody variants were immobilised on Nunc Maxisorp 96-well plates at 2.5 µg/ml. Capture of 5 ng/ml of recombinant human IL-18 was carried out either at room temperature or 37° C. in human serum or block solution. Anti-IL-18 mouse monoclonal antibody 16D10 was added. The bound mouse antibody was detected using anti-mouse kappa peroxidase conjugate (Serotec MCA 1291P). Representative EC50 values generated from the study data are illustrated in Table 9.

[4] = biological target: T1, Human interleukin-18 (recombinant human …); test: cell-based or functional assay
[5] = biological target: T1, Human interleukin-18 (recombinant human …); test: SPR, Biacore T100, Protein A capture, 37 C, mean n = 6
Protocol: as §1, §2

[6] = biological target: T1, Human interleukin-18 (recombinant human …); test: SPR, Biacore 3000, antibody captured on Protein A, 37 C
Protocol: as §3, §4

Rhesus IL-18 [7] = biological target: T2, Rhesus IL-18; test: as above
Protocol: as §3, §4

[8] = biological target: T1, Human interleukin-18 (recombinant human …); test: ELISA, human IL-18 captured by 16D10, antibody titrated
Protocol: ELISA with all nine humanised variants was carried out at least 6 times using various batches of purified antibody preparation. FIGS. 4A-4C show representative data from one experiment which generated the EC50 value ranking illustrated in Table 7. Human IL-18 was immobilized on Nunc Maxisorp 96-well plates using 2.5 µg/ml of 16D10 (non-neutralising mouse monoclonal antibody) to capture 5 ng/ml of recombinant human IL-18. Anti-IL-18 humanised antibodies were added at various dilutions. Bound humanised antibodies were detected using anti-human IgG Fc specific peroxidase conjugate (Sigma A0170).

[9] = biological target: T1, Human interleukin-18 (recombinant human …); test: ELISA, antibody on plate, human IL-18 captured, detected by 16D10; 37 C, blocking buffer
Protocol: as §5

[10] = biological target: T1, Human interleukin-18 (recombinant human …); test: SPR, Biacore 3000, antibody captured on Protein A, 25 C
Protocol: as §3, with “investigated. […]” for “investigated.”

B1: H1L2 humanised anti-IL-18 antibody (antibody, human IgG1, kappa, V domains shown)
VH: QVQLVQSGAEVKKPGASVKVSCKVSGEISTGYYFHWVRQAPGKGLEWMGRIDPEDDSTKYAERFKDRVTMTEDTSTDTAYMELSSLRSEDTAVYYCTTWRIYRDSSGRPFYVMDAWGQGTLVTVSS
VL: DIQMTQSPSSVSASVGDRVTITCLASEDIYTYLTWYQQKPGKAPKLLIYGANKLQDGVPSRFSGSGSGTDYTLTISSLQPEDFATYYCLQGSKFPLTFGQGTKLEIKR
notes: Human IgG1 / kappa
Kd [1]: 16.3 pM
Kd (Rhesus IL-18 [2]): 108 pM
EC50 [3]: 9.79 ng/mL
% change vs 2C10 (IC50, KG-1 bioassay) [4]: 61.5%
Kd [5]: 46 pM
Kd [6]: 197 pM
Kd (Rhesus IL-18 [7]): 139 pM
EC50 [8]: 11 ng/mL
EC50 [9]: 3.4 ng/mL
Kd [10]: 30.3 pM
